Results as given in patent US20150344570A1 (published 2015).

T1: FcγRIIb extracellular domain with C-terminal His tag (human, UniProt P31994 43-217)
T1 construct: extracellular domain; also called FcgRIIb; CD32B; not shown: His tag at the C terminus
T1 sequence (looked up): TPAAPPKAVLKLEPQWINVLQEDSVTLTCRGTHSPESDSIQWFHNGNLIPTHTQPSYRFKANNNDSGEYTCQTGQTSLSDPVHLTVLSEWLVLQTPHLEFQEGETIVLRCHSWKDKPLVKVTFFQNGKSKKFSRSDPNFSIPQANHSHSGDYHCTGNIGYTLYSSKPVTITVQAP

T2: FcγRIIb (human, UniProt P31994 43-217)
T2 construct: extracellular domain; also called FcgRIIb; 2b; not shown: His tag at the C terminus
T2 sequence (looked up): T1 sequence (looked up)

T3: FcγRIIa R (human, UniProt P12318 34-217)
T3 construct: extracellular domain; also called FcgRIIa R; FcγRIIa type R; not shown: His tag at the C terminus
T3 sequence (looked up): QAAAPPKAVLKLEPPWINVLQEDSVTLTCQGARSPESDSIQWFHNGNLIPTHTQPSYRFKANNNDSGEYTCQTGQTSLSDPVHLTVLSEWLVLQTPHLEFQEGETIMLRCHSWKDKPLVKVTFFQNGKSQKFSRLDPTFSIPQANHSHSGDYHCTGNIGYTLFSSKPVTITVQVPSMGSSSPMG

B1: GpH7-A5/GpH7-B3 variant P238_11K/GpL16-k0 (antibody, human IgG1, kappa)
heavy 1: not shown
heavy 2: not shown
light: DIVMTQSPLSLPVTPGEPASISCQASESLVHSNRNTYLHWYLQKPGQSPQLLIYKVSNRFSGVPDRFSGSGSGTDFTLKISRVEAEDVGVYYCSQNTHVPPTFGQGTKVEIERTVAAPSVFIFPPSDEQLKSGTASVVCLLNNFYPREAKVQWKVDNALQSGNSQESVTEQDSKDSTYSLSSTLTLSKADYEKHKVYACEVTHQGLSSPVTKSFNRGEC
notes: Heterodimerized anti-glypican-3 IgG1; mutation only in the GpH7-B3 H chain; also called He Ab
B2: GpH7-A5/GpH7-B3 variant P238_01G/GpL16-k0 (antibody, human IgG1, kappa)
heavy 1: not shown
heavy 2: not shown
light: B1 light
notes: Heterodimerized anti-glypican-3 IgG1; mutation in one H chain only; also called He Ab
B3: GpH7-A5/GpH7-B3 variant P238_11K/GpL16-k0 (antibody, human IgG1, kappa)
heavy 1: not shown
heavy 2: not shown
light: B1 light
notes: as for B2
B4: GpH7-A5/GpH7-B3 variant D265_07I/GpL16-k0 (antibody, human IgG1, kappa)
heavy 1: not shown
heavy 2: not shown
light: B1 light
notes: as for B2
B5: GpH7-A5/GpH7-B3 variant P238_18N/GpL16-k0 (antibody, human IgG1, kappa)
heavy 1: not shown
heavy 2: not shown
light: B1 light
notes: as for B2
B6: GpH7-A5/GpH7-B3 variant G236_15Y/GpL16-k0 (antibody, human IgG1, kappa)
heavy 1: not shown
heavy 2: not shown
light: B1 light
notes: as for B2
B7: GpH7-A5/GpH7-B3 variant D265_06M/GpL16-k0 (antibody, human IgG1, kappa)
heavy 1: not shown
heavy 2: not shown
light: B1 light
notes: as for B2
B8: GpH7-A5/GpH7-B3 variant G236_16H/GpL16-k0 (antibody, human IgG1, kappa)
heavy 1: not shown
heavy 2: not shown
light: B1 light
notes: as for B2
B9: GpH7-A5/GpH7-B3 variant G237_05P/GpL16-k0 (antibody, human IgG1, kappa)
heavy 1: not shown
heavy 2: not shown
light: B1 light
notes: as for B2
B10: GpH7-A5/GpH7-B3 variant G236_19Q/GpL16-k0 (antibody, human IgG1, kappa)
heavy 1: not shown
heavy 2: not shown
light: B1 light
notes: as for B2
B11: GpH7-A5/GpH7-B3 variant S239_12R/GpL16-k0 (antibody, human IgG1, kappa)
heavy 1: not shown
heavy 2: not shown
light: B1 light
notes: as for B1
B12: GpH7-A5/GpH7-B3 variant P238_12R/GpL16-k0 (antibody, human IgG1, kappa)
heavy 1: not shown
heavy 2: not shown
light: B1 light
notes: as for B2
B13: GpH7-A5/GpH7-B3 variant G237_03V/GpL16-k0 (antibody, human IgG1, kappa)
heavy 1: not shown
heavy 2: not shown
light: B1 light
notes: as for B2
B14: GpH7-A5/GpH7-B3 variant P238_18N/GpL16-k0 (antibody, human IgG1, kappa)
heavy 1: not shown
heavy 2: not shown
light: B1 light
notes: as for B1
B15: GpH7-A5/GpH7-B3 variant S239_15Y/GpL16-k0 (antibody, human IgG1, kappa)
heavy 1: not shown
heavy 2: not shown
light: B1 light
notes: as for B1
B16: GpH7-A5/GpH7-B3 variant S239_04F/GpL16-k0 (antibody, human IgG1, kappa)
heavy 1: not shown
heavy 2: not shown
light: B1 light
notes: as for B1
B17: GpH7-A5/GpH7-B3 variant P238_02A/GpL16-k0 (antibody, human IgG1, kappa)
heavy 1: not shown
heavy 2: not shown
light: B1 light
notes: as for B2
B18: GpH7-A5/GpH7-B3 variant D265_08L/GpL16-k0 (antibody, human IgG1, kappa)
heavy 1: not shown
heavy 2: not shown
light: B1 light
notes: as for B2
B19: GpH7-A5/GpH7-B3 variant S239_16H/GpL16-k0 (antibody, human IgG1, kappa)
heavy 1: not shown
heavy 2: not shown
light: B1 light
notes: as for B1
B20: GpH7-A5/GpH7-B3 variant D265_04F/GpL16-k0 (antibody, human IgG1, kappa)
heavy 1: not shown
heavy 2: not shown
light: B1 light
notes: as for B2
B21: GpH7-A5/GpH7-B3 variant G236_20W/GpL16-k0 (antibody, human IgG1, kappa)
heavy 1: not shown
heavy 2: not shown
light: B1 light
notes: as for B2
B22: GpH7-A5/GpH7-B3 variant G237_14T/GpL16-k0 (antibody, human IgG1, kappa)
heavy 1: not shown
heavy 2: not shown
light: B1 light
notes: as for B2
B23: GpH7-A5/GpH7-B3 variant P238_14T/GpL16-k0 (antibody, human IgG1, kappa)
heavy 1: not shown
heavy 2: not shown
light: B1 light
notes: as for B1
B24: GpH7-A5/GpH7-B3 variant P238_13S/GpL16-k0 (antibody, human IgG1, kappa)
heavy 1: not shown
heavy 2: not shown
light: B1 light
notes: as for B1
B25: GpH7-A5/GpH7-B3 variant P238_13S/GpL16-k0 (antibody, human IgG1, kappa)
heavy 1: not shown
heavy 2: not shown
light: B1 light
notes: as for B2
B26: GpH7-A5/GpH7-B3 variant S239_11K/GpL16-k0 (antibody, human IgG1, kappa)
heavy 1: not shown
heavy 2: not shown
light: B1 light
notes: as for B1
B27: GpH7-A5/GpH7-B3 variant D265_02A/GpL16-k0 (antibody, human IgG1, kappa)
heavy 1: not shown
heavy 2: not shown
light: B1 light
notes: as for B2
B28: GpH7-A5/GpH7-B3 variant P238_12R/GpL16-k0 (antibody, human IgG1, kappa)
heavy 1: not shown
heavy 2: not shown
light: B1 light
notes: as for B1
B29: GpH7-A5/GpH7-B3 variant P238_14T/GpL16-k0 (antibody, human IgG1, kappa)
heavy 1: not shown
heavy 2: not shown
light: B1 light
notes: as for B2
B30: GpH7-A5/GpH7-B3 variant D265_03V/GpL16-k0 (antibody, human IgG1, kappa)
heavy 1: not shown
heavy 2: not shown
light: B1 light
notes: as for B2
B31: GpH7-A5/GpH7-B3 variant G237_16H/GpL16-k0 (antibody, human IgG1, kappa)
heavy 1: not shown
heavy 2: not shown
light: B1 light
notes: as for B2
B32: GpH7-A5/GpH7-B3 variant D265_01G/GpL16-k0 (antibody, human IgG1, kappa)
heavy 1: not shown
heavy 2: not shown
light: B1 light
notes: as for B2

Assays:
[1] = target: T4, FcγRIa extracellular domain with C-terminal His tag (human, UniProt P12314 16-292); assay: SPR; He/Con_1a divided by He/Con_2b (FcγRIa against FcγRIIb)
T4 construct: extracellular domain; also called FcgRI; CD64; not shown: His tag at the C terminus
T4 sequence (P12314 16-292): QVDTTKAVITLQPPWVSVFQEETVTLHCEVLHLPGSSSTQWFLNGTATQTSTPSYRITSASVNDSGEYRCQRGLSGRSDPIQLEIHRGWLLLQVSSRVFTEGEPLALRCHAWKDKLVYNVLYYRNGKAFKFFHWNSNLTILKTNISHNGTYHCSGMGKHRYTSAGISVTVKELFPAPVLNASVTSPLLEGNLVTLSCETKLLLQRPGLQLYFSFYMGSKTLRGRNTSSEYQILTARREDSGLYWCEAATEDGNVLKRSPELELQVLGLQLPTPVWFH

[2] = target: T1, FcγRIIb extracellular domain with …; assay: SPR (Biacore), antibody captured, FcγR analyte; relative to GpH7-A5/GpH7-B3/GpL16-k0 = 100
[3] = target: T4, FcγRIa extracellular domain with …; assay: as above
FcγRIIb = target: T2, FcγRIIb; assay: SPR (Biacore T100), antibody captured on antigen peptide chip, FcγR as analyte; binding relative to GpH7-A5/GpH7-B3/GpL16-k0 = 100
Protocol: (§1) The heterodimerized antibodies He Abs in which one of the H chains was introduced with an alteration were assayed for their binding activities to each activating FcγR and inhibitory FcγR according to the method described in Example 4. […] The activating FcγRs in FIGS. 26, 27, 28, and 29 are FcγRIa, FcγRIIa (R), FcγRIIa (H), and FcγRIIIa, respectively.
(§2) Analysis of interaction between objective antibody and the FcγR was carried out using Biacore T100 (GE Healthcare). HBS-EP+ (GE Healthcare) was used as the running buffer, and the measurement temperature was set to 25° C. Chips produced by immobilizing the antigen peptide by the amine coupling method to a Series S Sencor Chip CM5 (GE Healthcare), or alternatively, chips produced by allowing preliminarily biotinylated antigen peptides to interact with and immobilize onto a Series S Sensor Chip SA (certified) (GE Healthcare) were used. Antibodies of interest were captured onto an antigen peptide-immobilized chip, and allowed to interact to each FcγR diluted with running buffer. To regenerate and repeatedly use the chip, the antibodies captured on the chip were washed off by reacting 10 mM glycine-HCl, pH 1.5.

FcγRIIa R [4] = target: T3, FcγRIIa R; assay: as above
Protocol: as §1, §2

FcγRIIa R [5] = target: T3, FcγRIIa R; assay: SPR (Biacore T100); He/Con_2aR divided by He/Con_2b (FcγRIIa R over FcγRIIb)
Protocol: as §1, §2

Binder	He_1a/2b (Ia/IIb) [1] [ratio]	He/Con_2b [2]	He/Con_1a [3]	He/Con_2b (IIb binding) (FcγRIIb)	He/Con_2aR (IIaR binding) (FcγRIIa R [4])	He_2aR/2b (IIaR/IIb) (FcγRIIa R [5]) [ratio]
B1	4.27	18.1 % of HeCon Ab	77.4 % of HeCon Ab			
B2				56 % of control	75 % of control	1.34
B3				18.1 % of control	36.9 % of control	2.03
B4				1.3 % of control	3.4 % of control	2.57
B5				73.2 % of control	91.9 % of control	1.26
B6				39.5 % of control	58.6 % of control	1.48
B7				10 % of control	15.8 % of control	1.58
B8				27.9 % of control	62.7 % of control	2.24
B9				24.6 % of control	34.5 % of control	1.4
B10				46.6 % of control	74.2 % of control	1.59
B11	2.21	39.1 % of HeCon Ab	86.5 % of HeCon Ab			
B12				51.4 % of control	80.5 % of control	1.57
B13				61.4 % of control	93 % of control	1.52
B14	1.27	73.2 % of HeCon Ab	93.3 % of HeCon Ab			
B15	2.57	34.9 % of HeCon Ab	89.8 % of HeCon Ab			
B16	2.13	44.1 % of HeCon Ab	93.8 % of HeCon Ab			

Binder	He_1a/2b (Ia/IIb) [1] [ratio]	He/Con_2b [2]	He/Con_1a [3]	He/Con_2b (IIb binding) (FcγRIIb)	He/Con_2aR (IIaR binding) (FcγRIIa R [4])	He_2aR/2b (IIaR/IIb) (FcγRIIa R [5]) [ratio]
B17				57.4 % of control	75.1 % of control	1.31
B18				4.6 % of control	6.6 % of control	1.46
B19	1.78	49.4 % of HeCon Ab	88.1 % of HeCon Ab			
B20				3.2 % of control	5.6 % of control	1.79
B21				58.2 % of control	77.9 % of control	1.34
B22				54.8 % of control	78.6 % of control	1.43
B23	1.8	50.7 % of HeCon Ab	91.1 % of HeCon Ab			
B24	1.37	70.4 % of HeCon Ab	96.6 % of HeCon Ab			
B25				70.4 % of control	88.9 % of control	1.26
B26	2.75	24.7 % of HeCon Ab	68 % of HeCon Ab			
B27				19.9 % of control	33.9 % of control	1.71
B28	1.5	51.4 % of HeCon Ab	77.3 % of HeCon Ab			
B29				50.7 % of control	73.1 % of control	1.44
B30				3.2 % of control	5.8 % of control	1.8
B31				55.2 % of control	74.5 % of control	1.35
B32				16.1 % of control	24.1 % of control	1.49
